We go through one molecule from patent US20090062150A1 (published 2009).

This test addresses T1, 7-mer (AGAIAGG) derived from Toxoplasma gondii micronemal proteins (MIC2) (Toxoplasma gondii).
T1 construct: also called MIC2 peptide; MC2
As to the kind of experiment: crystal soak, X-ray structure.

B1: N-terminally truncated GlpG transmembrane core domain (residues 87-276), E. coli rhomboid protease (enzyme)
chain: AALRERAGPVTWVMMIACVVVFIAMQILGDQEVMLWLAWPFDPTLKFEFWRYFTHALMHFSLMHILFNLLWWWYLGGAVEKRLGSGKLIVITLISALLSGYVQQKFSGPWFGGLSGVVYALMGYVWLRGERDPQSGIYLQRGLIIFALIWIVAGWFDLFGMSMANGAHIAGLAVGLAMAFVDSLNARKRK
notes: range 87-276; also called GlpG core; truncated GlpG core domain
In the case of B1, the binding result is reported as “binds”.
